Measurements as given in paper PMC9396398, “Crystal structure of Ankyrin-G in complex with a fragment of Neurofascin reveals binding mechanisms required for integrity of the axon initial segment” (The Journal of Biological Chemistry, 2022).

Legend:
AnkG R1-24 R318A, Q351A = target: T1, AnkG R1-24 R318A, Q351A (Rattus norvegicus); experiment: ITC
T1 chain: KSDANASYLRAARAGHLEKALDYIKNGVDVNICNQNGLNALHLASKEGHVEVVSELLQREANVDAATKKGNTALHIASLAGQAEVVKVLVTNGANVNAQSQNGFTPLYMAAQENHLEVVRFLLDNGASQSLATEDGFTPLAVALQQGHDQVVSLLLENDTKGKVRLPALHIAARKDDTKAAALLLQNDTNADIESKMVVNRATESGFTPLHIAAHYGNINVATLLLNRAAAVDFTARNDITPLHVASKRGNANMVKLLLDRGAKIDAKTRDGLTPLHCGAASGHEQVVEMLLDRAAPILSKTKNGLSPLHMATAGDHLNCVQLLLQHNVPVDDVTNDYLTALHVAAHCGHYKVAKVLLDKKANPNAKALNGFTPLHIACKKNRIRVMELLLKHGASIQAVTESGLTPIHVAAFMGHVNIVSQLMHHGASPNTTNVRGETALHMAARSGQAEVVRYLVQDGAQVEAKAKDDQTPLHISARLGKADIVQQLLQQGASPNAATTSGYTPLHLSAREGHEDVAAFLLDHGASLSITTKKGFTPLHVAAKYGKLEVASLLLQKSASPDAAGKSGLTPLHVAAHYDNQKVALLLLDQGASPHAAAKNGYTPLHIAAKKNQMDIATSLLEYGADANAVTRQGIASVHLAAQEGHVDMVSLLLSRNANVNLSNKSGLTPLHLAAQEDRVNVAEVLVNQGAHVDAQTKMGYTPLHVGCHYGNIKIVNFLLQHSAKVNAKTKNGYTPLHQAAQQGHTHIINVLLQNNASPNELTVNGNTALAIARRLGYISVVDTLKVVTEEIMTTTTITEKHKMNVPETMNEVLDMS

AnkG R1-24 L343Q, L376Q = target: T2, AnkG R1-24 L343Q, L376Q (Rattus norvegicus); experiment: ITC
T2 chain: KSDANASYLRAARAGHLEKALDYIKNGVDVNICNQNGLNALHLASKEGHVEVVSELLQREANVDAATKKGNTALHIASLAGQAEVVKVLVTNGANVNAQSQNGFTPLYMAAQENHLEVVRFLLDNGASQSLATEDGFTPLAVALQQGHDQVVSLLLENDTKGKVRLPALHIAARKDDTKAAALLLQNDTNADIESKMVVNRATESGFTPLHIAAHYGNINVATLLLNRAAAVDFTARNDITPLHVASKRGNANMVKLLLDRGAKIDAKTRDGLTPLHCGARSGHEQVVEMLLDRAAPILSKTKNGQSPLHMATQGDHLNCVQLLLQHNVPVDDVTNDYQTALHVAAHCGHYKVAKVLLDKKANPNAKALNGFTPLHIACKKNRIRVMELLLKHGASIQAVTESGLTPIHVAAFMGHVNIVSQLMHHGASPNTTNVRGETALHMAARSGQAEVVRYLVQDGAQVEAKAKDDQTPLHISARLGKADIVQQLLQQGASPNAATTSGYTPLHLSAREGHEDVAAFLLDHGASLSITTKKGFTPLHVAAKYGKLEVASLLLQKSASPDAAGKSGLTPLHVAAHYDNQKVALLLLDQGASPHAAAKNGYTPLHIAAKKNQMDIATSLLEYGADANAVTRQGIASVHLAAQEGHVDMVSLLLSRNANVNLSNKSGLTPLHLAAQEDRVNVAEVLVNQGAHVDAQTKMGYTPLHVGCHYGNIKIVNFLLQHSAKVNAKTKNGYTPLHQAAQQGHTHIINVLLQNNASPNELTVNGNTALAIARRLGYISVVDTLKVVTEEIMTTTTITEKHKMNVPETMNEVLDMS

AnkG R1-24 I277Q, L310Q = target: T3, AnkG R1-24 I277Q, L310Q (Rattus norvegicus); experiment: ITC
T3 chain: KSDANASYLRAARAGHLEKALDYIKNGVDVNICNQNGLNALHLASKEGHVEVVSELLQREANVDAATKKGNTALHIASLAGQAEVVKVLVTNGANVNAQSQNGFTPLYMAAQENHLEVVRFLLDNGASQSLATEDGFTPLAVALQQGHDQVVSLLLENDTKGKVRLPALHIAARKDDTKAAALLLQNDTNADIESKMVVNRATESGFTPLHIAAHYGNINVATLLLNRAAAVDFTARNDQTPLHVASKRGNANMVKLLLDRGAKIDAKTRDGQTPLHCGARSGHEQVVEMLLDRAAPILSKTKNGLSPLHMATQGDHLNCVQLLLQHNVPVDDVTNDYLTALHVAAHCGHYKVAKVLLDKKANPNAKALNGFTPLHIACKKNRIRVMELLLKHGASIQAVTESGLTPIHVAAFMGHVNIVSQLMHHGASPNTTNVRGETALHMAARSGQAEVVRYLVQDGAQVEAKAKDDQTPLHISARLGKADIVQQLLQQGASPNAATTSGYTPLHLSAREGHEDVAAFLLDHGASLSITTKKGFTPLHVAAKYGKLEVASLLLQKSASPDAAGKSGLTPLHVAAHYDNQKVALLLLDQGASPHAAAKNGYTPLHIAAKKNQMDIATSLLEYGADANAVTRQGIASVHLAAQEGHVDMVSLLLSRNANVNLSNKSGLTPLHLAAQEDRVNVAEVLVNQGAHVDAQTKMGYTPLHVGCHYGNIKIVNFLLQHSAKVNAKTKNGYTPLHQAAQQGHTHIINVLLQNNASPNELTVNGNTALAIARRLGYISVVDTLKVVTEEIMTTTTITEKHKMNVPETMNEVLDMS

AnkG R6-16 = AnkG R6-16 (UniProt O70511); experiment: ITC; VP-ITC at 25 °C; 50 mM Tris, 100 mM NaCl, 1 mM EDTA, 1 mM DTT, pH 7.8; Nfasc proteins (200 μM) in the syringe, AnkG proteins (20 μM) in the cell; one-site binding model
Chain of AnkG R6-16 (O70511 whole entry): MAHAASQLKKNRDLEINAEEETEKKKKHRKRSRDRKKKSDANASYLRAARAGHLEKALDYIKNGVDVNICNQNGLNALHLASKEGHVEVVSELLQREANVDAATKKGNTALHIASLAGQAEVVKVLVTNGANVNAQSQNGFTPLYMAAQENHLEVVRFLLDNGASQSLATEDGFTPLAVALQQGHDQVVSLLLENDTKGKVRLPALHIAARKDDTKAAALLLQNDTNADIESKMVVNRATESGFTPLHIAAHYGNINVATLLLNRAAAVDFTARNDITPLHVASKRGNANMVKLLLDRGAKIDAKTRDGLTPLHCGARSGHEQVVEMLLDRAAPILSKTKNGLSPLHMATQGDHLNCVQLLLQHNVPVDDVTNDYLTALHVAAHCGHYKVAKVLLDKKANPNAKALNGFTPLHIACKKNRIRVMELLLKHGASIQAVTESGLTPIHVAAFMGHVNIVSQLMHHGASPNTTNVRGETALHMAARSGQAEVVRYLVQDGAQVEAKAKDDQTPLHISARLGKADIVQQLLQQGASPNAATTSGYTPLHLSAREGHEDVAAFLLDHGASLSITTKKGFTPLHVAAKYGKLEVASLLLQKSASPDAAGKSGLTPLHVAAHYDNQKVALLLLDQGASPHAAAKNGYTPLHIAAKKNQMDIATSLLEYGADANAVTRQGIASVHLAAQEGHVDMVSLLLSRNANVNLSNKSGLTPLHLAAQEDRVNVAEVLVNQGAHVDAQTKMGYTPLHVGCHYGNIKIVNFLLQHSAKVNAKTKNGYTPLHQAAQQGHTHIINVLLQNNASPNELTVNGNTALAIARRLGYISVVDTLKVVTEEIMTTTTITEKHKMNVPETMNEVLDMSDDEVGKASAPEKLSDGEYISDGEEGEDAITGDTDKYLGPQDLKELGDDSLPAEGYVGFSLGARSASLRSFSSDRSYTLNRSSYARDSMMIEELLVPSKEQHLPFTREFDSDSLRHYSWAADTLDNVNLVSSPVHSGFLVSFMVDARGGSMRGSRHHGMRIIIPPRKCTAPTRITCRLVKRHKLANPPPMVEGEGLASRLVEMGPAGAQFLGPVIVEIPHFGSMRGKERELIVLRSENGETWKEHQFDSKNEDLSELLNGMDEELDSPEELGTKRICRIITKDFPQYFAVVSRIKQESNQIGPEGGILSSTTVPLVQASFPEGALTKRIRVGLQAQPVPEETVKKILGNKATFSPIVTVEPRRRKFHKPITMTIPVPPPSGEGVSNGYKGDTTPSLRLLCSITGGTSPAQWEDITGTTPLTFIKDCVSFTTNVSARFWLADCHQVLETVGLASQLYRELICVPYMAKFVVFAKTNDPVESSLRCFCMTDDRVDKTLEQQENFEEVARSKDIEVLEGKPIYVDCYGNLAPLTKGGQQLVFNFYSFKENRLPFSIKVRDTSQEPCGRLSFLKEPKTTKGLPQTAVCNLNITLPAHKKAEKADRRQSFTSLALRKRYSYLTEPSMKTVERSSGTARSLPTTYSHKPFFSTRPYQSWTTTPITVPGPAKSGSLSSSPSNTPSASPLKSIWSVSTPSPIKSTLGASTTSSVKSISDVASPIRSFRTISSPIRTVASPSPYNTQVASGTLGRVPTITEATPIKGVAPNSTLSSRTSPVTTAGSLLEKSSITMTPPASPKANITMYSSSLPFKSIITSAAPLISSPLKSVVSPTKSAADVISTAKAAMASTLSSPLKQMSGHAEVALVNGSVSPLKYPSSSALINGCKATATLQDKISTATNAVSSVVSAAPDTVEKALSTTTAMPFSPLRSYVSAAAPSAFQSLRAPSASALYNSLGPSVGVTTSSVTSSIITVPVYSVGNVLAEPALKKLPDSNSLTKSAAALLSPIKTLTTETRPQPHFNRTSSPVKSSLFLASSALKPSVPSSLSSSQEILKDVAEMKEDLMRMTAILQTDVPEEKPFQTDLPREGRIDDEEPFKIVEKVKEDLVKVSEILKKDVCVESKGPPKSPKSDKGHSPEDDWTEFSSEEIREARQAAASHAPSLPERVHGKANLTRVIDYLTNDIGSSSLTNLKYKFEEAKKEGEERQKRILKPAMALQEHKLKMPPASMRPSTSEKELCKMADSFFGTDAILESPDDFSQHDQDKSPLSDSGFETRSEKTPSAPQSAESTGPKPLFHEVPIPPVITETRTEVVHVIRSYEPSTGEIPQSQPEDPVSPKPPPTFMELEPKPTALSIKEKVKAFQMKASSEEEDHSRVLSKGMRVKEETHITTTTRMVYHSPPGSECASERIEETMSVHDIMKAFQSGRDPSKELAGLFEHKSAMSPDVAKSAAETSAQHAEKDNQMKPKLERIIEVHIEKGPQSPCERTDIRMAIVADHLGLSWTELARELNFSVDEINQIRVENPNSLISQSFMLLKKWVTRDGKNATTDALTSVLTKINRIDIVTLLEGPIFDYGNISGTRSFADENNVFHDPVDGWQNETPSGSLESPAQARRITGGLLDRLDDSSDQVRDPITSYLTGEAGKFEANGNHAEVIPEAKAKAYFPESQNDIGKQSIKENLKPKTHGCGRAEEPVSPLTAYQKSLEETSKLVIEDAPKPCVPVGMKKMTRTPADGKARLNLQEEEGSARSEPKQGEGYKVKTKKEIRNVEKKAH

Kd (AnkG R1-24 R318A, Q351A): 670 nM
Kd (AnkG R1-24 L343Q, L376Q): 2000 nM
Kd (AnkG R1-24 I277Q, L310Q): 3000 nM
Kd (AnkG R6-16): 290 nM
B1: Nfasc ankyrin-binding domain (ABD, residues 1187-1214) (domain or fragment, UniProt P97685 1187-1214, looked up)
chain: SDDSLVDYGEGGEGQFNEDGSFIGQYTV
notes: also called Nfasc ABD; source: E. coli BL21 (DE3), purified (Ni-NTA, size-exclusion chromatography)
